Tests used:
Conditions in all cases: both partners purified
[1] = target: T1, Full-length S. pombe Mal3, unlabelled (S. pombe, UniProt Q10113 1-308); test: scaffold-client recruitment into condensates (spinning disc confocal microscopy); scaffold condensates of 200 nM FL Mal3, 215 nM Tip1 (each tagged with 2 nM FL Mal3:mCherry) or Tea2-Alexa647, with 2 nM Mal3:GFP construct as client; 1x MRB80, 50 mM KCl, 10% PEG6k, 2 mM ATP, 1 mM GTP, 2 mM dithiothreitol, 0.5 mM β-mercaptoethanol; imaged about 30 min after mixing
T1 construct: Mal3 (EB homologue), Schizosaccharomyces pombe, full length; Scaffold (200 nM) in the scaffold-client assay; also the Mal3 of the cryo-ET samples; also called FL-Mal3; FLMal3; source: E. coli ER2566, purified (Talon resin, eluted with 3C protease, SEC); not shown: His8, N-terminal, cleaved
T1 sequence (looked up): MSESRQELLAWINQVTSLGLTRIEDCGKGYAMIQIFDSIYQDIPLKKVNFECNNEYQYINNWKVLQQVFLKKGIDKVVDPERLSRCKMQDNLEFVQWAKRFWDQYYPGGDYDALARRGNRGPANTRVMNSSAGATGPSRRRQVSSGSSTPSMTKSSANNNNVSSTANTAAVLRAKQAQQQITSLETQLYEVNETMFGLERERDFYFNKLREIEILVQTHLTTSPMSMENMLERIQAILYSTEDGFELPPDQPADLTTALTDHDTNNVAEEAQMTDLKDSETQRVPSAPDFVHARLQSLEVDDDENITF

Tea2-Alexa647 [2] = target: T2, Tea2-Alexa647 (S. pombe, UniProt Q1MTQ1 1-628, Alexa Fluor 647 (NHS ester labelling, sites not stated)); test: as above
T2 construct: Tea2 (kinesin-7 homologue), Schizosaccharomyces pombe, full length; also called Tea2-647; source: bacterially expressed, purified (Talon resin, eluted with 3C protease, SEC), labelled with Alexa Fluor 647 NHS ester; not shown: Z-tag, N-terminal, cleaved
T2 sequence (looked up): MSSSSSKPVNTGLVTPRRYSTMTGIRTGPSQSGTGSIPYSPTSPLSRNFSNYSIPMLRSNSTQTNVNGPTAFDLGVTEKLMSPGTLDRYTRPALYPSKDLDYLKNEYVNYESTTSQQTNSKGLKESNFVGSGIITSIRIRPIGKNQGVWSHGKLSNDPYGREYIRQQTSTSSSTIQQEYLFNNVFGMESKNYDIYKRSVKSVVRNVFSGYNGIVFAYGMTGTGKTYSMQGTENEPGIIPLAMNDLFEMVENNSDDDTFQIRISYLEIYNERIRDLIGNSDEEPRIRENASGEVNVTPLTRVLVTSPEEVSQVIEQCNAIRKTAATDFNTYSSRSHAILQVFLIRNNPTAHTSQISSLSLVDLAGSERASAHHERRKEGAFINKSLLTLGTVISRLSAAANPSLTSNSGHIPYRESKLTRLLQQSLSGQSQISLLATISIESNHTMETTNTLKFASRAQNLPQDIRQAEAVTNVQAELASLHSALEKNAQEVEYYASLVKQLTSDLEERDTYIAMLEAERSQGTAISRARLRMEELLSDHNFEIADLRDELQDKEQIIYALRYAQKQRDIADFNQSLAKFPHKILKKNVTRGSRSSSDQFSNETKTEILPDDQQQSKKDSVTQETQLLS

Tea2-Alexa647 [3] = target: T2, Tea2-Alexa647; test: TIRF microscopy of purified fluorescent proteins on microtubules; plus-end-tracking reconstitution without PEG: 200 nM Mal3 or Mal3 construct, 20 nM Tea2, 150 nM Tip1 together on dynamic microtubules grown from surface-bound GMPCPP seeds; MRB80, 50 mM KCl, 14.5 µM tubulin, 0.5 µM rhodamine tubulin, 1 mM GTP, 2 mM ATP, 0.1% methylcellulose

Row | Binder | binding result [1] | binding result (Tea2-Alexa647 [2]) | binding result (Tea2-Alexa647 [3])
1 | Full-length Mal3:GFP (natural protein, S. pombe, UniProt Q10113 1-308, looked up, Mal3 (EB homologue), Schizosaccharomyces pombe, full length; source: E. coli ER2566, purified (Talon resin, eluted with 3C protease, SEC); not shown: His8, N-terminal, cleaved) MSESRQELLAWINQVTSLGLTRIEDCGKGYAMIQIFDSIYQDIPLKKVNFECNNEYQYINNWKVLQQVFLKKGIDKVVDPERLSRCKMQDNLEFVQWAKRFWDQYYPGGDYDALARRGNRGPANTRVMNSSAGATGPSRRRQVSSGSSTPSMTKSSANNNNVSSTANTAAVLRAKQAQQQITSLETQLYEVNETMFGLERERDFYFNKLREIEILVQTHLTTSPMSMENMLERIQAILYSTEDGFELPPDQPADLTTALTDHDTNNVAEEAQMTDLKDSETQRVPSAPDFVHARLQSLEVDDDENITF | binds | binds | –
2 | Mal3-Alexa488 (natural protein, S. pombe, UniProt Q10113 1-308, looked up, Alexa Fluor 488 (TFP ester labelling, sites not stated), Mal3 (EB homologue), Schizosaccharomyces pombe, full length; source: E. coli ER2566, purified (Talon resin, eluted with 3C protease, SEC), labelled with Alexa Fluor 488 TFP ester; not shown: His8, N-terminal, cleaved) MSESRQELLAWINQVTSLGLTRIEDCGKGYAMIQIFDSIYQDIPLKKVNFECNNEYQYINNWKVLQQVFLKKGIDKVVDPERLSRCKMQDNLEFVQWAKRFWDQYYPGGDYDALARRGNRGPANTRVMNSSAGATGPSRRRQVSSGSSTPSMTKSSANNNNVSSTANTAAVLRAKQAQQQITSLETQLYEVNETMFGLERERDFYFNKLREIEILVQTHLTTSPMSMENMLERIQAILYSTEDGFELPPDQPADLTTALTDHDTNNVAEEAQMTDLKDSETQRVPSAPDFVHARLQSLEVDDDENITF | – | – | binds
